B1: clone Co-22 peptide (peptide)
peptide: VWCGMFGKRRCVT
B2: clone Co-3 peptide (peptide)
peptide: GGCRWYAKWVCVW
B3: clone 15-59 peptide (peptide)
peptide: DLCTYGHLWLGNGRP
B4: clone 7C-22 peptide (peptide)
peptide: WMCSGVQPNACVW
B5: clone 7C-5 peptide (peptide)
peptide: IWCGSRFGCWCKP
B6: clone 7C-12 peptide (peptide)
peptide: FWCIRGEYWVCDR
B7: clone Co-20 peptide (peptide)
peptide: RLCCWKTQYFCEI
B8: clone Co-2 peptide (peptide)
peptide: WSCPKVNQYACFW
B9: clone 15-50 peptide (peptide)
peptide: GFVLVWSYTCRCWGK
B10: clone 7C-24 peptide (peptide)
peptide: WWCDMRGDSRCSG
B11: clone 15-16 peptide (peptide)
peptide: SDWSVLLSCERWYCI
B12: clone 7C-14 peptide (peptide)
peptide: LNCAMYNACIW
B13: clone Co-19 peptide (peptide)
peptide: WQCGRFWCIHCLW
B14: clone Co-8 peptide (peptide)
peptide: WTWESAFAGRWEVGD
B15: clone Co-21 peptide (peptide)
peptide: MYCERDSKYWCIH
B16: clone Co-11 peptide (peptide)
peptide: LECPGESKYYCIY
B17: clone 7C-8 peptide (peptide)
peptide: WLCLDKNCMACVW
B18: clone 7C-4 peptide (peptide)
peptide: YMCMSRGDATCDV
B19: clone 15-2 peptide (peptide)
peptide: DHKFGLVMLNKYAYAG
B20: clone Co-16 peptide (peptide)
peptide: QGCAFVTYWACIF
B21: clone Co-10 peptide (peptide)
peptide: WRCLGDGYHACVR
B22: clone 15-32 peptide (peptide)
peptide: RRELVRMTDWVWVSG
B23: clone Co-1 peptide (peptide)
peptide: SLCAAYNRWACIW
B24: clone Co-17 peptide (peptide)
peptide: WECAEESKFWCVF
B25: clone 7C-1 peptide (peptide)
peptide: WYCFRENKYVCVM
B26: clone Co-23 peptide (peptide)
peptide: LVCNRQNPWVCYI
B27: clone 7C-19 peptide (peptide)
peptide: WVCNKLGVYACEY
B28: clone 7C-15 peptide (peptide)
peptide: QCCQLRGDAVCNC
B29: clone 7C-6 peptide (peptide)
peptide: GECFYYVMNTCVW
B30: clone 7C-2 peptide (peptide)
peptide: ESCWYQIMYKCAN
B31: clone 15-52 peptide (peptide)
peptide: ESGLKVMCMKYYCMA
B32: clone 7C-21 peptide (peptide)
peptide: WNCIKGSSWACVW
B33: clone 7C-20 peptide (peptide)
peptide: WVCIWERFKSCNE
B34: clone 7C-9 peptide (peptide)
peptide: KLCCFDKGYYCMR
B35: clone Co-18 peptide (peptide)
peptide: WWCKKPEYWYCIW
B36: clone 15-6 peptide (peptide)
peptide: LEDAMGWALSWGHIW
B37: clone 7C-3 peptide (peptide)
peptide: WFCLLGRSAYCVR
B38: clone Co-12 peptide (peptide)
peptide: WVCLWRHRGDCSI
B39: clone Co-9 peptide (peptide)
peptide: SKCWGWTPYYCVA
B40: clone Co-5 peptide (peptide)
peptide: WDCGKKNAWMCIW
B41: clone 7C-11 peptide (peptide)
peptide: LCCESYICALCHY
B42: clone Co-13 peptide (peptide)
peptide: STCSWVSSYVCIM
B43: clone 7C-17 peptide (peptide)
peptide: WLCKGSNKYMCEW
B44: clone Co-15 peptide (peptide)
peptide: WVCNDLIHHFCVW
B45: clone 7C-7 peptide (peptide)
peptide: LECTERGDFNCFV

What follows are binders tested against neural stem cell surface (cell surface molecule(s) of NSCs, not identified) (rat (adult hippocampus, stated in Example 1)) (assay: flow cytometry, GFP bacterial clone displaying the peptide on NSCs).

% NSCs with Bacteria [%] | Binder
75.6 | B1
75.7 | B2
22.5 | B3
46.9 | B4
65.6 | B5
64.5 | B6
70.9 | B7
74.8 | B8
64.9 | B9
61.7 | B10
63.9 | B11
54.5 | B12
50.6 | B13
61.7 | B14
70.9 | B15
72.7 | B16
68.8 | B17
62 | B18
75.9 | B19
71.9 | B20
72.7 | B21
70.4 | B22
73.8 | B23

% NSCs with Bacteria [%] | Binder
72.1 | B24
75.2 | B25
71.1 | B26
20.5 | B27
54 | B28
61.8 | B29
55.2 | B30
63.3 | B31
75.5 | B32
65.7 | B33
71.3 | B34
71.3 | B35
70.2 | B36
71.9 | B37
74.3 | B38
75.7 | B39
67.4 | B40
37.7 | B41
64.8 | B42
67.8 | B43
70.9 | B44
47.8 | B45

— patent US20100189760A1
